Data taken from patent US20230151105A1 (HUTCHISON MEDIPHARMA, published 2023).
Substitutions are numbered along the chain they refer to. In names and notes the source's numbering stands.

B1: OX40mAb24 (antibody, V domains shown)
VH: QVQLQESGPGLVKPSQTLSLTCAVYGGSFSSGYWNWIRKHPGKGLEYIGYISYNGITYHNPSLKSRITINRDTSKNQYSLQLNSVTPEDTAVYYCARYKYDYDGGHAMDYWGQGTLVTVSS
VL: DIQMTQSPSSLSASVGDRVTITCRASQDISNYLNWYQQKPGKAPKLLIYYTSKLHSGVPSRFSGSGSGTDYTLTISSLQPEDFATYYCQQGSALPWTFGQGTKVEIKR
B2: Hu38E11-v1 (antibody, human IgG1, V domains shown)
VH: QVQLVQSGAEVKKPGASVKVSCKASGYTFTSYWVDWVRQAPGQGLEWIGNIYPSDSETHYNQKFKDRVTMTVDTSTSTVYMELSSLRSEDTAVYYCARSYGYYGTWFAYWGQGTLVTVSS
VL: DIVMTQSPDSLAVSLGERATINCRASESVDSSGNSFMHWYQQKPGQPPKLLIYRASNLESGIPDRFSGSGSGTDFTLTISSVQAEDVAVYYCQQSNEDPWTFGGGTKLEIK
notes: also called Hu38E11-vl
B3: Hu38E11 (IgG2) (antibody)
heavy: QVQLVQSGAEVKKPGASVKVSCKASGYTFTSYWVDWVRQAPGQGLEWMGNIYPSDSETHYNQKFKDRVTMTRDTSTSTVYMELSSLRSEDTAVYYCARSYGYYGTWFAYWGQGTLVTVSSASTKGPSVFPLAPCSRSTSESTAALGCLVKDYFPEPVTVSWNSGALTSGVHTFPAVLQSSGLYSLSSVVTVPSSNFGTQTYTCNVDHKPSNTKVDKTVERKCCVECPPCPAPPVAGPSVFLFPPKPKDTLMISRTPEVTCVVVDVSHEDPEVQFNWYVDGVEVHNAKTKPREEQFNSTFRVVSVLTVVHQDWLNGKEYKCKVSNKGLPAPIEKTISKTKGQPREPQVYTLPPSREEMTKNQVSLTCLVKGFYPSDIAVEWESNGQPENNYKTTPPMLDSDGSFFLYSKLTVDKSRWQQGNVFSCSVMHEALHNHYTQKSLSLSPGK
VL: B2 VL with I62V, V82L
B4: Hu38E11 (IgG1 N297A) (antibody, name in EU numbering)
heavy: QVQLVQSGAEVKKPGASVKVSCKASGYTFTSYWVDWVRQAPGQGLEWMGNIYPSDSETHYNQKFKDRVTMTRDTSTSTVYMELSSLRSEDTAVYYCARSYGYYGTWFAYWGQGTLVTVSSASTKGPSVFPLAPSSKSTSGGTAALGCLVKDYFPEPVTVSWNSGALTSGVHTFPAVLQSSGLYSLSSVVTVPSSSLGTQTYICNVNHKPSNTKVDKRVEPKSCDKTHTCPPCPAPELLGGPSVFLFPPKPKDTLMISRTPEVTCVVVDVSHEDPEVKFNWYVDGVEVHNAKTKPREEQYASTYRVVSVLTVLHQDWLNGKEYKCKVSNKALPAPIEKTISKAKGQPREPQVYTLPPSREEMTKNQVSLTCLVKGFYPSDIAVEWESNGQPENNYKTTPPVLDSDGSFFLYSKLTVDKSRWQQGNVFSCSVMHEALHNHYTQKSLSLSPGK
VL: B2 VL with I62V, V82L
notes: Hu38E11 variable regions with a human IgG1 constant region carrying N297A; also called Hu38E11 (hIgG1 N297A)
B5: Hu38E11-v2 (antibody, human IgG1, V domains shown)
VH: B2 VH with V79A, T91S
VL: B2 VL with I62V, V82L
B6: Hu38E11-v4 (antibody, human IgG1, V domains shown)
VH: B2 VH with V79A, T91S
VL: B2 VL with V82L
B7: humanized 38E11 antibody Hu38E11 (IgG1) (antibody)
heavy: not shown
VL: B2 VL with I62V, V82L
B8: Hu38E11-v3 (antibody, human IgG1, V domains shown)
VH: B2 VH with I48M, V72R
VL: B2 VL
B9: 11D4 (antibody, V domains shown)
VH: EVQLVESGGGLVQPGGSLRLSCAASGFTFSSYSMNWVRQAPGKGLEWVSYISSSSSTIDYADSVKGRFTISRDNAKNSLYLQMNSLRDEDTAVYYCARESGWYLFDYWGQGTLVTVSS
VL: DIQMTQSPSSLSASVGDRVTITCRASQGISSWLAWYQQKPEKAPKSLIYAASSLQSGVPSRFSGSGSGTDFTLTISSLQPEDFATYYCQQYNSYPPTFGGGTKVEIKR
B10: hybridoma-derived antibody 38E11 (antibody, V domains shown)
VH: QVQLQQPGAELVRPGSSVQLSCKASGYTFTSYWVDWVKQRPGQGLQWIGNIYPSDSETHYNQKFKDKATLTVDKSSSTAYMQLSSLTSEDSAVYYCARSYGYYGTWFAYWGQGTLVTVSA
VL: DIVLTQSPASLAVSLGQRATISCRASESVDSSGNSFMHWYQQKPGQPPKLLIYRASNLESGIPARFSGSGSRTDFTLTINPVEADDVATYYCQQSNEDPWTFGGGTKLEIK
notes: Murine antibody purified from hybridoma supernatant by protein A

How the values were obtained:
[1] = molecular target: T1, human OX40 expressed on the cell surface (human, UniProt P43489 29-277); assay: cell-based or functional assay
T1 sequence (looked up): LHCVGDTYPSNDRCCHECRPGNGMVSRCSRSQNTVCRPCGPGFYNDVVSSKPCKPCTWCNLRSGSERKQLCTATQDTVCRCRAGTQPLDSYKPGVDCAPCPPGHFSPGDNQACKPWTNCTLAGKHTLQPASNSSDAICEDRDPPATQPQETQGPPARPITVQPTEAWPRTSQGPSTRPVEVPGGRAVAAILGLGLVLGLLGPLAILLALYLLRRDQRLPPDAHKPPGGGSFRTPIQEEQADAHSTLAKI

[2] = molecular target: T1, human OX40 expressed on the cell surface; assay: FACS on activated human T cells
Text: (§1) Primary human PBMC were isolated from whole blood obtained from healthy donors through density gradient centrifugation with Ficoll-Paque PLUS (GE Healthcare, Cat 17-1440-02). After centrifuge, the cells in the middle layer were collected and washed 3 times with PBS to obtain PBMC. Then, human T cells were isolated with Pan T Cell Isolation Kit (Miltenyi biotec, Cat 130-096-535) by magnetic beads isolation method according to the protocol recommended by the instructions. T cells were resuspended in RPMI 1640 (containing 10% FBS and penicillin/streptomycin bi-antibiotics) medium, and PHA-L and IL-2 (or Con-A and hIL-2) were added for 2-day stimulation to induce the expression of OX40 from the T cells. The activated T cells were washed once with PBS containing 2% FBS, the serially diluted OX40 antibodies were added, and incubated at 4° C. for 30 minutes. The cells were washed twice with PBS containing 2% FBS, PE-labeled anti-human IgG secondary antibody (Biolegend, Cat 409304) (or PE-labeled anti-mouse IgG secondary antibody (Biolegend, Cat 405307)) and APC-CY7 labeled antibody human CD4 antibody (Biolegend, Cat 300518) were added. The binding of OX40 antibody on the surface of CD4 positive T cells was detected by BD Cantoll flow cytometry. A curve was fitted according to the median fluorescence intensity value, and EC₅₀ was calculated.
According to the detection method described in the preceding Example 1.2, FACS was used to analyze the binding activities of humanized antibodies to OX40 on activated human T cells.

[3] = molecular target: T1, human OX40 expressed on the cell surface; assay: FACS on activated human CD4+ T cells
Text: as §1

[4] = molecular target: T1, human OX40 expressed on the cell surface; assay: cell-based or functional assay; remark: listed apart in the source
[5] = molecular target: T1, human OX40 expressed on the cell surface; assay: cell-based or functional assay; remark: listed apart in the source
[6] = molecular target: T2, recombinant OX40-Fc protein (R & D, Cat 3388-OX) (human, UniProt P43489 29-214); assay: blocking ELISA: OX40-Fc coated, antibody titrated, competitor OX40L at 50 ng/ml
T2 construct: extracellular domain; also called OX40 (R & D systems, Cat 3388-OX); not shown: Fc tag
T2 sequence (looked up): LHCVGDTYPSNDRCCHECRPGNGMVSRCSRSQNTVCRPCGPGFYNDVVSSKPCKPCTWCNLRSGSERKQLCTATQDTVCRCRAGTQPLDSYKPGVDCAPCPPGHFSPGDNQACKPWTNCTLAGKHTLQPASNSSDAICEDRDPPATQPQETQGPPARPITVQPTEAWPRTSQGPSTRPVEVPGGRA

[7] = molecular target: T3, recombinant human OX40-His protein (R & D Systems, Cat 9969-OX) (human, UniProt P43489 29-214); assay: SPR (Biacore), antibody captured on anti-human Fc CM5 chip, human OX40-His as analyte, 1:1 Langmuir
T3 construct: extracellular domain; Bought protein; also called human OX40 protein; human OX40-His fusion protein; not shown: His tag
T3 sequence (looked up): T2 sequence (looked up)
Text: Biacore is used to determine the binding kinetic parameters by measuring surface plasmon resonance (SPR). This technology was used to detect the microscopic rate constants of the binding (kₐ) and dissociation (kd) of an antibody and an antigen. Based on the kₐ and the kd values, the affinity value of the antibody to the antigen is obtained. Both Biacore instrument and reagents were purchased from GE Healthcare. In particular, anti-human Fc antibody was immobilized on a CM5 sensor chip. The supernatants containing expressed antibody or the purified antibodies were diluted in a mobile phase buffer (10 mM HEPES, 150 mM NaCl, 3 mM EDTA, 0.05% Tween-20, pH 7.4), and flowed through the CM5 chip coated with anti-human Fc antibody. Then the serially diluted human OX40-His fusion proteins flowed through the detection chip to measure the binding of the antigen to the antibody, and then the mobile phase buffer flowed through the chip to detect the dissociation of the antigen from the antibody. The binding and dissociation signal data of the antigen and the antibody were collected at different concentrations, and fitted to the 1:1 Langmuir model to calculate the affinity between the antigen and the antibody.

[8] = molecular target: T3, recombinant human OX40-His protein (R & …); assay: ELISA, human OX40-His coated, anti-mouse IgG-HRP detection
Method: The recombinant human OX40-His (R & D, Cat 9969-OX) was coated onto 96-well plates. After blocking, serially diluted mouse serum or antibodies were added and incubated. After washing plates with PBS containing 0.5% Tween20, HRP-labeled anti-mouse IgG secondary antibody was added for incubation, and the plates were developed with […], and the OD450 value was read via a microplate reader.

Row | Agonistic activity on T cells, IFNγ release, EC50 [1] [nM] | maximum IFNγ concentration [1] [ng/mL] | EC50 [2] [nM] | EC50 [3] [nM] | Enhancement of IFNγ production by activated human T cells (ELISA), EC50 [4] [nM] | Ratio of IFNγ maximum effect to background (in fold) [4] [fold] | other results | Binder
1 | 7.1 | 27400 | 6.23 | 1.3 | 14.7 | 9.4 | – | B1
2 | 0.7 | 21600 | 5.03 | – | – | – | – | B2
3 | – | – | – | – | – | – | T-cell agonistic activity, IFNγ released by T cells, EC50 [5]: 1.6 nM | B3
4 | – | – | – | – | – | – | blocking of OX40L-mediated T cell activation, IFNγ secretion, IC50 [5]: 0.3 nM; inhibition of the expression of luciferase reporter gene under the control of NF-κB, IC50 [5]: 0.2 nM; IC50 [6]: ~0.3 nM | B4
5 | 1 | 22500 | 3.35 | – | – | – | – | B5
6 | 0.9 | 21700 | 3.02 | – | – | – | – | B6
7 | 2.4 | 24800 | 4.56 | – | – | – | Kd [7]: 2.36 nM; koff [7]: 0.000394 s⁻¹; kon [7]: 167000 M⁻¹ s⁻¹; expression of the luciferase reporter gene under the control of NF-κB, EC50 [5]: 0.7 nM | B7
8 | 1.7 | 22500 | 3.48 | – | – | – | – | B8
9 | – | – | – | 0.4 | 8 | 5.6 | Kd [7]: 2.51 nM; koff [7]: 0.000435 s⁻¹; kon [7]: 173000 M⁻¹ s⁻¹; T-cell agonistic activity, IFNγ released by T cells, EC50 [5]: 5.3 nM | B9
10 | – | – | – | 0.8 | 1.4 | 7.6 | EC50 [8]: 0.276 nM | B10
